The text below walks through data of PMC5493658, “Post-secretional activation of Protease IV by quorum sensing in Pseudomonas aeruginosa” (Scientific Reports, 2017).

The assay deals with T1, P-PIV: His-tagged protease IV (PIV) purified from PAO-T7 (Pseudomonas aeruginosa, UniProt Q9HWK6 212-462).
T1 construct: Protease IV (PIV), lysyl-endopeptidase encoded by piv, Pseudomonas aeruginosa; 26 kDa mature PIV left after removal of the signal peptide and the propeptide (residues 1-211 of the 48 kDa prepro-PIV); because the N-terminus is processed twice during secretion it is probably C-terminal (surmise); also called His-tagged active PIV; mature PIV; source: P. aeruginosa PAO-T7 harboring pQF21c-PIV, …
T1 sequence: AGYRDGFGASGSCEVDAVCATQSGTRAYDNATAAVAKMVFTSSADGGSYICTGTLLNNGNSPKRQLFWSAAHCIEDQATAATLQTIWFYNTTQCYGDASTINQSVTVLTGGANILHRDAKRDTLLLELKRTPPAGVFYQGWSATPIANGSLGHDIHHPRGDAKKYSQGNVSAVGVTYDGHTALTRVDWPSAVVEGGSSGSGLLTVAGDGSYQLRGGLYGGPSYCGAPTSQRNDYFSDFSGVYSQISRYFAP
As to the kind of experiment: pull-down; 1 ug purified propeptide mixed with 1 ug His-tagged P-PIV in 25 ul, room temperature 10 min; loaded on Ni-NTA agarose column, washed twice with 5 mM imidazole, eluted with 200 mM imidazole; SDS-PAGE. The note with it: both partners purified.

B1: propeptide of PIV purified from E. coli (domain or fragment)
chain: APGASEMAGDVAVLQASPASTGHARFANPNAAISAAGIHFAAPPARRVARAAPLAPKPGTPLQVGVGLKTATPEIDLTTLEWIDTPDGRHTARFPISAAGAASLRAAIRLETHSGSLPDDVLLHFAGAGKEIFEASGKDLSVNRPYWSPVIEGDTLTVELVLPANLQPGDLRLSVPQVSYFADSLYK
notes: Propeptide of protease IV (PIV), Pseudomonas aeruginosa; expressed as residues 1-211 of prepro-PIV (signal peptide and propeptide); also called purified propeptide; PP; source: E. coli BL21 (DE3) harboring pET16b-pro, purified (Ni-NTA, Q sepharose, size exclusion chromatography); not shown: His tag, N-terminal, cleaved
For the molecule B1, the binding result is given as “binds”.
